Measurements: US20230028899A1

Target: CD19 on CD19+ Raji B cells (UniProt P15391)
Assay: cell-based or functional assay

Sequence of UniProt P15391 (P15391 20-556 limits assumed): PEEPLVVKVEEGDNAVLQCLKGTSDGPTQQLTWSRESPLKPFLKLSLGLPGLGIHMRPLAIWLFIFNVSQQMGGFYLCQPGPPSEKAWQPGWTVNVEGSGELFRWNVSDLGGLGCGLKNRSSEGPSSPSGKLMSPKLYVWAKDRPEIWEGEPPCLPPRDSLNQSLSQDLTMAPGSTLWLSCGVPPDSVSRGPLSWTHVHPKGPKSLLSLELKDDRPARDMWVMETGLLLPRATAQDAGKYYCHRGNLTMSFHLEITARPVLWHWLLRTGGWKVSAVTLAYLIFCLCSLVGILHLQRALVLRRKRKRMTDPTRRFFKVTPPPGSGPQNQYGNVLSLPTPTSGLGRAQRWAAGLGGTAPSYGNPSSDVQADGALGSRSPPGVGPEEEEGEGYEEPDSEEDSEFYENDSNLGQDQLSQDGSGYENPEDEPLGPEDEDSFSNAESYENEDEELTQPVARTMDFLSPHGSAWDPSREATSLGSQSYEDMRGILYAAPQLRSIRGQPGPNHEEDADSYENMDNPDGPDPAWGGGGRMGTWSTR

GFP fluorescence of transduced T-cells (GFP-RDE1, MinP), 24 h co-culture, flow cytometry: 6.5%
activated cells in the population (CD25/CD69 staining), 24 h co-culture, GFP-RDE1 construct: 0.9 to 84.8%
activated cells in the population (CD25/CD69 staining), 24 h co-culture, GFP-RDE2.1 construct: 3.9 to 12.1%
fold change in IL-12 expression (ELISA), NFAT promoter, 3'-UTR not responsive to CAR stimulation: 50 fold
fold change in IL-12 expression (ELISA), NFAT promoter, RDE1 (Gold1): 168 fold
fold change in IL-12 expression (ELISA), minP promoter, RDE1 (Gold1): 6.3 fold
fold increase in bioluminescence, MinP promoter, RDE1: 4.1 fold
fold increase in bioluminescence, MinP promoter, RDE2: 1.8 fold
fold increase in bioluminescence, MinP promoter, RDE3: 1.4 fold
fold increase in bioluminescence, NFAT promoter, RDE1: 8.5 fold
fold increase in bioluminescence, NFAT promoter, RDE2: 3.1 fold
fold increase in bioluminescence, NFAT promoter, RDE3: 1.3 fold
Substance: anti-CD19 CAR (anti-CD19 CAR cassette as described in WO 2012/079000), expressed on transduced CD4+ T-cells
